These results are taken from US20120283194, “Inhibitors of Atypical Protein Kinase C and Their Use in Treating Hedgehog Pathway-Dependent Cancers” (published 2012).

The target in one series is T1, aPKC (HIS:aPKC) (UniProt P41743 P41743:1-596).
T1 sequence: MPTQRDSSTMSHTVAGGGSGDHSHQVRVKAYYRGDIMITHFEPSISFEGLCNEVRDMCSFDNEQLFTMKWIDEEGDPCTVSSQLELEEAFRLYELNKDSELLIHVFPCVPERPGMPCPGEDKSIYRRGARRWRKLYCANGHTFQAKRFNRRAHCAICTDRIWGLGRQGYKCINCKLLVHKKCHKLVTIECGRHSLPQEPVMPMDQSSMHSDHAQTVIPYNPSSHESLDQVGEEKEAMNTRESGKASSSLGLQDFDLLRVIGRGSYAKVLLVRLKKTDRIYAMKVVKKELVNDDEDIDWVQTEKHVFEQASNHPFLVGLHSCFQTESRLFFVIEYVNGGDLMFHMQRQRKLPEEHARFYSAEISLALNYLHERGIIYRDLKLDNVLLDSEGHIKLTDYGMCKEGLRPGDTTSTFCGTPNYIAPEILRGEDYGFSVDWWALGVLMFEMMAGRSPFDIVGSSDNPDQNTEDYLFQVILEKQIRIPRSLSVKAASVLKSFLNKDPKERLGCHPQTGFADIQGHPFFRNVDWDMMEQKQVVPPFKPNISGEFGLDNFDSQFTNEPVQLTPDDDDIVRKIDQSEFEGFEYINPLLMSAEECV
The experiment in a line: EMSA; aPKC alone did not bind. Conditions: tags: HIS, Abcam. On the procedure: (§1) Electrophoretic mobility shift assay performed by incubation of 50 fmol double-stranded radiolabeled Gli1 oligos (5′ […] 3′ (SEQ IF NO:5)) in binding buffer ([…] pH 7.5, mM KCl, 2.5 mM MgCl2, 1 mM DTT, 10% glycerol, 25 uM poly(dO-dC), 5 uM ZnSO₄) with IVT Gli1:V5/HIS lysate for 10 min at room temperature. 2 pmol unlabeled Gli1 oligos or Gli1 mutant oligos (5′ […] 3′ (SEQ ID NO:6)) used as competition. Endogenous aPKC inhibited in reticulocyte lysate with PSI during translation reaction and rescue performed by adding recombinant HIS:aPKC for 15 min before addition of radiolabeled Gli1 oligos. Samples were resolved on 6% acrylamide gel and exposed to a phosphor screen (Molecular Dynamics) and imaged with GE Typhoon 9410.
(§2) We asked whether phosphorylated Gli1 affects the mobility of radiolabeled Gli1 target DNA in an electrophoretic mobility assay.

The target in a further series is Gli1 (Homo sapiens, UniProt P08151 P08151:1-1106). Put plainly: EMSA; Zn, Mg, poly(dI-dC)-type competitor, room temperature; binding reduced by PSI during translation and rescued by recombinant aPKC; over-phosphorylation disrupts. Conditions: tags: V5/HIS, rabbit reticulocyte lysate (Promega). On the procedure:
as §1, §2

Gli1, sequence (P08151 whole entry, one chain of several): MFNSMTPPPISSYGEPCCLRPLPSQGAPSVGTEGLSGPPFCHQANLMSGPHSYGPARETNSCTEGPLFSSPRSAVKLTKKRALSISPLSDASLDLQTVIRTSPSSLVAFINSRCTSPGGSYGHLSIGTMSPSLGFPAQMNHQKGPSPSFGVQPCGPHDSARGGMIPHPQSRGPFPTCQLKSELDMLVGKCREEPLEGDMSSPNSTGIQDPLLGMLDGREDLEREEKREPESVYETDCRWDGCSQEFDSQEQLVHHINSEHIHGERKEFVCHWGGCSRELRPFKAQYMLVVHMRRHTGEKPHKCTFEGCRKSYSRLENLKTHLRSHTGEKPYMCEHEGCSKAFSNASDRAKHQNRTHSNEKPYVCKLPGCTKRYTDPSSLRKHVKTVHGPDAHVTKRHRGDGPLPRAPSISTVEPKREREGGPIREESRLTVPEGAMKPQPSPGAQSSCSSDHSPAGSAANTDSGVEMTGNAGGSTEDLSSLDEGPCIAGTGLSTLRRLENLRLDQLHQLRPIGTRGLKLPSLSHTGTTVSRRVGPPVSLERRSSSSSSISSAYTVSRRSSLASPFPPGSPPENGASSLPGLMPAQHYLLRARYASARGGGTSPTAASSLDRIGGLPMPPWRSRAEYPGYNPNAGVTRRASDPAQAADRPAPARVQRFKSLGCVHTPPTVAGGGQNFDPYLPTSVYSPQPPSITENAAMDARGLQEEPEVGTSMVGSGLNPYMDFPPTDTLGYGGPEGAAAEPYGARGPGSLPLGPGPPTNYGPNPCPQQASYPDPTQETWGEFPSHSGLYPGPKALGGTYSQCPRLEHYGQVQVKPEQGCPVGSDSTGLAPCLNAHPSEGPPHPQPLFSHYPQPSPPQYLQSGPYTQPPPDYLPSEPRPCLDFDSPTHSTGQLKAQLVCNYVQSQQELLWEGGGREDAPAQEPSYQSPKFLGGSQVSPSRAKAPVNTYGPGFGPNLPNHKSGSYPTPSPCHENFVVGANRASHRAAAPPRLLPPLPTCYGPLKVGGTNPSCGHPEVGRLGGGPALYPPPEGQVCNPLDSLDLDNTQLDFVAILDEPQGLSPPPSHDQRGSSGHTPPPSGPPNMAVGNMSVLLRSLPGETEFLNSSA

B1: Gli1 target oligo (dsDNA)
DNA 1: AGCCCGGACCACCCACGAGAA
DNA 2: TTCTCGTGGGTGGTCCGGGCT
As for B1, the binding result is recorded as “no binding” in the series with aPKC (HIS:aPKC) and “binds” in the series with Gli1.
